The supplement of paper PMC11246515
± gives the standard deviation of the averaged measurements.

Assay: total protein half-life in vivo (active degradation + dilution); higher = more stable protein
[1] = E. coli NCM3722 delta-clpP, growth: N-lim chemostat, doubling time 6 h
[2] = E. coli NCM3722 delta-lon, growth: N-lim chemostat, doubling time 6 h
[3] = wild type E. coli NCM3722, growth: C-lim chemostat, doubling time 3 h
[4] = wild type E. coli NCM3722, growth: C-lim chemostat, doubling time 12 h
[5] = wild type E. coli NCM3722, growth: N-lim chemostat, doubling time 12 h
[6] = wild type E. coli NCM3722, growth: P-lim chemostat, doubling time 12 h
[7] = E. coli NCM3722 delta-clpP delta-lon delta-hslV, growth: N-lim chemostat, doubling time 6 h
[8] = E. coli NCM3722 delta-hslV, growth: N-lim chemostat, doubling time 6 h
[9] = E. coli NCM3722 delta-smpB, growth: N-lim chemostat, doubling time 6 h
[10] = wild type E. coli NCM3722, growth: C-lim chemostat, doubling time 6 h
[11] = wild type E. coli NCM3722, growth: N-lim chemostat, doubling time 6 h
[12] = wild type E. coli NCM3722, growth: P-lim chemostat, doubling time 6 h

Sequence | total protein half-life in vivo [1] | total protein half-life in vivo [2] | total protein half-life in vivo [3] | total protein half-life in vivo [4] | total protein half-life in vivo [5] | total protein half-life in vivo [6] | total protein half-life in vivo [7] | total protein half-life in vivo [8] | total protein half-life in vivo [9] | total protein half-life in vivo [10] | total protein half-life in vivo [11] | total protein half-life in vivo [12]
MEGWQRAFVLHSRPWSETSLMLDVFTEESGRVRLVAKGARSKRSTLKGALQPFTPLLLRFGGRGEVKTLRSAEAVSLALPLSGITLYSGLYINELLSRVLEYETRFSELFFDYLHCIQSLAGVTGTPEPALRRFELALLGHLGYGVNFTHCAGSGEPVDDTMTYRYREEKGFIASVVIDNKTFTGRQLKALNAREFPDADTLRAAKRFTRMALKPYLGGKPLKSRELFRQFMPKRTVKTHYE [P0A7H3] | 2.812 ± 0.027 h | > 8 h | 1.98 h | 2.57 h | 2.87 h | 4.34 h |  |  |  |  |  | 
MEIFFTILIMTLVVSLSGVVTRVMPFQIPLPLMQIAIGALLAWPTFGLHVEFDPELFLVLFIPPLLFADGWKTPTREFLEHGREIFGLALALVVVTVVGIGFLIYWVVPGIPLIPAFALAAVLSPTDAVALSGIVGEGRIPKKIMGILQGEALMNDASGLVSLKFAVAVAMGTMIFTVGGATVEFMKVAIGGILAGFVVSWLYGRSLRFLSRWGGDEPATQIVLLFLLPFASYLIAEHIGVSGILAAVAAGMTITRSGVMRRAPLAMRLRANSTWAMLEFVFNGMVFLLLGLQLPGILETSLMAAEIDPNVEIWMLFTNIILIYAALMLVRFGWLWTMKKFSNRFLKKKPMEFGSWTTREILIASFAGVRGAITLAGVLSIPLLLPDGNVFPARYELVFLAAGVILFSLFVGVVMLPILLQHIEVADHSQQLKEERIARAATAEVAIVAIQKMEERLAADTEENIDNQLLTEVSSRVIGNLRRRADGRNDVESSVQEENLERRFRLAALRSERAELYHLRATREISNETLQKLLHDLDLLEALLIEENQ |  | 5.55 ± 0.11 h |  | 11.9 ± 0.93 h | 10.9 ± 0.26 h | 11.4 ± 0.66 h | 6.08 ± 0.45 h | 6.29 ± 0.48 h | 5.17 ± 1.3 h | 5.6 ± 0.69 h | 5.74 ± 0.28 h | 6.31 ± 0.26 h
MEIREGHNKFYINDKQGKQIAEIVFVPTGENLAIIEHTDVDESLKGQGIGKQLVAKVVEKMRREKRKIIPLCPFAKHEFDKTREYDDIRS |  |  |  |  | > 16 h | 12 h |  |  |  |  |  | 
MEITEPRRLYQQLAADLKERIEQGVYLVGDKLPAERFIADEKNVSRTVVREAIIMLEVEGYVEVRKGSGIHVVSNQPRHQQAADNNMEFANYGPFELLQARQLIESNIAEFAATQVTKQDIMKLMAIQEQARGEQCFRDSEWDLQFHIQVALATQNSALAAIVEKMWTQRSHNPYWKKLHEHIDSRTVDNWCDDHDQILKALIRKDPHAAKLAMWQHLENTKIMLFNETSDDFEFNADRYLFAENPVVHLDTATSGSK [P0ACL2] | 4.22 ± 0.52 h | 2.4 ± 0.26 h | 1.97 ± 0.099 h | 5.16 ± 0.083 h | 2.59 ± 0.37 h | 4.91 ± 0.27 h | 5.59 ± 0.086 h | 1.94 ± 0.086 h | 2.12 ± 0.16 h | 3.7 ± 0.26 h | 1.97 ± 0.043 h | 2.99 ± 0.29 h
MEKKLPRIKALLTPGEVAKRSGVAVSALHFYESKGLITSIRNSGNQRRYKRDVLRYVAIIKIAQRIGIPLATIGEAFGVLPEGHTLSAKEWKQLSSQWREELDRRIHTLVALRDELDGCIGCGCLSRSDCPLRNPGDRLGEEGTGARLLEDEQN [P0ACS2] | 1.34 h | 2.45 h |  | 3.19 ± 0.38 h |  |  | 4.33 ± 0.31 h |  | 1.49 h | 2.35 h | 1.33 h | 
MEKRTPHTRLSQVKKLVNAGQVRTTRSALLNADELGLDFDGMCNVIIGLSESDFYKSMTTYSDHTIWQDVYRPRLVTGQVYLKITVIHDVLIVSFKEK |  |  | 3.12 h |  |  | 13.2 ± 0.69 h | 5.29 h |  | 5 h |  |  | 
MEKVMLSFDKVSAHYGKIQALHEVSLHINQGEIVTLIGANGAGKTTLLGTLCGDPRATSGRIVFDDKDITDWQTAKIMREAVAIVPEGRRVFSRMTVEENLAMGGFFAERDQFQERIKWVYELFPRLHERRIQRAGTMSGGEQQMLAIGRALMSNPRLLLLDEPSLGLAPIIIQQIFDTIEQLREQGMTIFLVEQNANQALKLADRGYVLENGHVVLSDTGDALLANEAVRSAYLGG | 6.13 ± 0.64 h | 6.44 ± 0.9 h | 3.07 ± 0.055 h | 12.4 ± 0.52 h | 10.1 ± 1.1 h | 13.5 ± 0.69 h | 5.87 ± 0.53 h | 5.66 ± 0.54 h | 5.58 ± 0.61 h | 5.86 ± 0.22 h | 5.51 ± 0.47 h | 5.94 ± 0.59 h
MELHCPQCQHVLDQDNGHARCRSCGEFIEMKALCPDCHQPLQVLKACGAVDYFCQHGHGLISKKRVEFVLA | 4.63 h |  |  | 4.37 h | 5.69 h | > 16 h | 5.52 ± 2.3 h |  |  |  | 6.43 h | 
MELLSEYGLFLAKIVTVVLAIAAIAAIIVNVAQRNKRQRGELRVNNLSEQYKEMKEELAAALMDSHQQKQWHKAQKKKHKQEAKAAKAKAKLGEVATDSKPRVWVLDFKGSMDAHEVNSLREEITAVLAAFKPQDQVVLRLESPGGMVHGYGLAASQLQRLRDKNIPLTVTVDKVAASGGYMMACVADKIVSAPFAIVGSIGVVAQMPNFNRFLKSKDIDIELHTAGQYKRTLTLLGENTEEGREKFREELNETHQLFKDFVKRMRPSLDIEQVATGEHWYGQQAVEKGLVDEINTSDEVILSLMEGREVVNVRYMQRKRLIDRFTGSAAESADRLLLRWWQRGQKPLM [P0AG14] | 6.18 ± 0.14 h | 6.12 ± 0.27 h | 3.11 ± 0.099 h | 11.3 ± 0.26 h | 14.1 ± 1.8 h | 11.4 ± 1.4 h | 6.52 ± 0.91 h | 5.91 ± 0.15 h | 6.07 ± 0.87 h |  | 6.076 ± 0.021 h | 5.6 ± 0.61 h
